Experimental findings from paper PMC10521239 (Protein Science : A Publication of the Protein Society, 2023) are described below.

In this test the target is HPC4 tagged human fIX without the gamma-carboxyglutamic (GLA) domain, wild type (Homo sapiens). As to the kind of experiment: ELISA.
Sequence of HPC4 tagged human fIX without the gamma-carboxyglutamic (GLA) domain, wild type (Homo sapiens) (P00740 93-461): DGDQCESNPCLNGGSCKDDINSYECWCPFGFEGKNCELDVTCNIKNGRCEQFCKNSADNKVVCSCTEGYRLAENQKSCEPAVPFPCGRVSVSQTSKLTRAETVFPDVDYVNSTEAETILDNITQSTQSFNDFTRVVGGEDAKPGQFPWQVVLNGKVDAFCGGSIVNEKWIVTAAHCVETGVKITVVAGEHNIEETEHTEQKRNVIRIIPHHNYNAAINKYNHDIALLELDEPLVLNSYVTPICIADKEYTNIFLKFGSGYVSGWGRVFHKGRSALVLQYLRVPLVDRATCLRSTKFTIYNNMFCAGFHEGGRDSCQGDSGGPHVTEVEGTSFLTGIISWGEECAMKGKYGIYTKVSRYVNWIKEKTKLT

B1: anti-fIXa NN-8895 full-length mAb (antibody, V domains shown)
VH: EVQLVESGGGLVQPGRSLRLSCAASGFIFDDYAMHWVRQVPGKGLEWVSGISWNSDNIGYVDSVKGRFTISRDNAKNSLYLQMNSLRIEDTALYYCAKAFGSGSYYNGFDYWGQGALVTVSS
VL: DIQMTQSPSTLSASAGDRVTISCRASQSISSWLAWYQQKPGKAPKLLIYKASSLESGVPSRFSGSGSGTEFTLTISSLQPDDFATYYCQEYNSYIRTFGQGTKVEIK
For B1, the binding result is reported as “binds”.
